Like-named read-outs stand apart in the source and are kept apart here.
B1: H1H6975N-DM1 (antibody, human IgG1, V domains shown)
VH: EVHLVESGGGLVQPGGSLRLSCAASGFTFSSYEMNWVRQTPGKGLEWISHISSRSVIIYYADSVKGRFTISRDNAKNSLFLQMNSLRAEDTAVYFCAGITIFGIPEYWGQGTLVTVSS
VL: EIVLTQSPATLSLSPGERATLSCRASQSVSSYFAWYQQKPGQAPRLLIYDASSRATGIPTRFSGSGSGTDFTLTISSLEPEDFAVYYCQQRSSWPITFGQGTRLEIK
modifications: DM1 conjugated through SMCC linker; attachment residues not stated
B2: H1H6765P-DM1 (antibody, human IgG1, V domains shown)
VH: EVQLVESGGGVVRPGGSLRLSCVGSGFSFDDHGMNWVRQGPGKGLEWVSGFNWNGGSTNYAESVKGRFTISRDNARNSLFLQMNSLRAEDTALYYCVRGRSGWFNDAFDVWGPGTMVTVSS
VL: EIVLTQSPGTLSLSPGERATLSCRASQTINSNYLAWYRQKPGQTPRLLIYGTSSRATGIPDRFSGSGSGTDFSLTISRLEPEDFAVFYCQQYAGLPTFGPGTKVDIK
modifications: DM1 conjugated through SMCC linker; attachment residues not stated
B3: H1H6953N-mc-VC-PAB-MMAE (antibody, human IgG1, V domains shown)
VH: EVQLLESGGGLVQPGGTLRLSCAASGFTFSAYAMSWVRQAPGKGLEWVSSINVRAGDTYYADSVKGRFTISRDNSKNTLFLLMNSLRAEDTAAYYCAKARYSSNWGFDFWGQGTLVTVSS
VL: DIVMTQSPDSLTVSLGARTTINCQSSQTILHSSNNHNYLAWYQQKPGLPPKLLIYWSSTRESGVPDRFSGSGSGTDFTLTISSLQAEDVAIYYCQQYSNTPYTFGQGTKLEIN
modifications: MMAE conjugated through cleavable mc-vc-PAB linker; attachment residues not stated
B4: H1H6958N2-mc-VC-PAB-MMAE (antibody, human IgG1, V domains shown)
VH: QVQLVESGGGVVQPGRSLRLSCGASGFTFRNYGMQWVRQGPGKGLEWVTLISFDGNDKYYADSVKGRFTISRDNSKNTLFLQMNSLRTEDTAVYYCARGGDFDYWGQGTLVTVSS
VL: DIQMTQSPSSLSASVGDRVTITCRASQDIRKDLGWYQQKPGKAPKRLIYAASSLHSGVPSRFSGSGSGTEFTLTISSLQPEDFATYYCLQHNSYPMYTFGQGTKLEIK
modifications: MMAE conjugated through cleavable mc-vc-PAB linker; attachment residues not stated
B5: H1H6765P-mc-VC-PAB-MMAE (antibody, human IgG1, V domains shown)
VH: B2 VH
VL: B2 VL
modifications: MMAE conjugated through cleavable mc-vc-PAB linker; attachment residues not stated
B6: H1H6975P-mc-VC-PAB-MMD (antibody, human IgG1, V domains shown)
VH: B1 VH
VL: B1 VL
modifications: MMD conjugated through mc-VC-PAB linker; attachment residues not stated
B7: H1H6782P-mc-VC-PAB-MMD (antibody, human IgG1, V domains shown)
VH: EVQLVESGGGLVQPGRSLRLSCAASGFTFDDYAMHWVRQAPGKGLEWVSGIIWNSGHIGYGDSVKGRFTISRDNAKKSLYLQMNSLRAEDTALYYCARDSGRYQSYFDYWGQGTLVTVSS
VL: DIQMTQSPSTLSASVGDRVTITCRASHIISSWLAWYQQKPGKAPKVLIFKASSLESGVPSRFSGSGSGTEFTLTISSLQPDDFATYYCQQYNTYSRTFGQGTKVEIK
modifications: MMD conjugated through mc-VC-PAB linker; attachment residues not stated
B8: H1H6782P-mc-VC-PAB-MeNHC3-May (antibody, human IgG1, V domains shown)
VH: B7 VH
VL: B7 VL
modifications: MeNHC3-May conjugated through mc-VC-PAB linker; attachment residues not stated

Key:
Experiment in all cases: cell-based or functional assay
[1] = molecular target: T1, human prolactin receptor (PRLR) (human, UniProt P16471 25-622)
T1 sequence: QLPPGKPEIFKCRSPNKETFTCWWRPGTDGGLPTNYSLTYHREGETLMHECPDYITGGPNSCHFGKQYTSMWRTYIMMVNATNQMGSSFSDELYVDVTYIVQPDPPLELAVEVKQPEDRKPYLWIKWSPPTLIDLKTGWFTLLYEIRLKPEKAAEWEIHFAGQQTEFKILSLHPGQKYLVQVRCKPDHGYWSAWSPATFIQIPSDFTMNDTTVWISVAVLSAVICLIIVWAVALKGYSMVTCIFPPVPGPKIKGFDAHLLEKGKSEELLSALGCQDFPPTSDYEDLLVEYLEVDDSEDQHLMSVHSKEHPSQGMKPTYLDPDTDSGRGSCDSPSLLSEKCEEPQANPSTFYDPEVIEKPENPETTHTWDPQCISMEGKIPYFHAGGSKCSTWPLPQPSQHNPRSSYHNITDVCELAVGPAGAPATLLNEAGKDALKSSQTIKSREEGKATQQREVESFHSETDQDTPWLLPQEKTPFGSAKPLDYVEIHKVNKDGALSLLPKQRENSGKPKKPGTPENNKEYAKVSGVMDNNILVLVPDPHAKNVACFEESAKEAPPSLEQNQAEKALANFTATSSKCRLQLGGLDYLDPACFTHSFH

[2] = molecular target: T1, human prolactin receptor (PRLR); remark: listed apart in the source
[3] = molecular target: T1, human prolactin receptor (PRLR); remark: listed apart in the source
[4] = molecular target: T1, human prolactin receptor (PRLR); remark: listed apart in the source
[5] = molecular target: T1, human prolactin receptor (PRLR); remark: listed apart in the source

Row | Binder | % Kill, PC3/PRLR cells [1] [%] | IC50, cell viability, PC3/PRLR cells [1] [nM] | % Kill, MCF7/PRLR cells [2] [%] | % Kill, MCF7 cells [2] [%] | % Kill, T47D cells [2] [%] | IC50, cell viability, MCF7/PRLR cells [2] [nM] | IC50, cell viability, MCF7 cells [2] [nM] | IC50, cell viability, T47D cells [2] [nM] | % Kill, T47D cells [3] [%] | IC50, cell viability, T47D cells [3] [nM] | % Kill, MCF7/ATCC cells [4] [%] | % Kill, MCF7/PRLR cells [4] [%] | IC50, cell viability, MCF7/ATCC cells [4] [nM] | IC50, cell viability, MCF7/PRLR cells [4] [nM] | % Kill, MCF7/ATCC cells [5] [%] | % Kill, MCF7/PRLR cells [5] [%] | % Kill, PC3/hPRLR cells [5] [%] | IC50, cell viability, MCF7/ATCC cells [5] [nM] | IC50, cell viability, MCF7/PRLR cells [5] [nM] | IC50, cell viability, PC3/hPRLR cells [5] [nM]
1 | B1 | 68 | 2.7 | 87 | 73 | 80 | 0.49 | 150 | 6.9 | 100 | 2 | 70 | 80 | 200 | 0.2 |  |  |  |  |  | 
2 | B2 | 70 | 0.57 | 84 | 68 | 78 | 0.18 | 150 | 1.63 | 90 | 1 | 70 | 90 | 150 | 0.3 | 71 | 81 | 83 | 90 | 0.1 | 0.3
3 | B3 |  |  |  |  |  |  |  |  | 80 | 1 | 40 | 85 | 150 | 0.1 | 42 | 85 | 80 | 150 | 0.1 | 0.2
4 | B4 |  |  |  |  |  |  |  |  | 90 | 1 | 50 | 90 | 150 | 0.2 | 53 | 88 | 82 | 150 | 0.2 | 0.5
5 | B5 |  |  |  |  |  |  |  |  | 90 | 1 | 40 | 90 | 150 | 0.2 | 38 | 86 | 85 | 150 | 0.2 | 0.4
6 | B6 |  |  |  |  |  |  |  |  | 90 | 3 | 50 | 90 | 150 | 0.2 |  |  |  |  |  | 
7 | B7 |  |  |  |  |  |  |  |  | 90 | 2 | 50 | 90 | 200 | 0.3 |  |  |  |  |  | 
8 | B8 |  |  |  |  |  |  |  |  | 90 | 2 | 50 | 80 | 250 | 0.2 |  |  |  |  |  | 
